What was measured:
[1] = system: Kp43816 LPS and Kp15380 LPS; experiment: serum cytokines after LPS challenge (MSD kit); type: in vivo, C57BL/6 mice; details: 3 hours after challenge with Kp43816 LPS and Kp15380 LPS
Description: In order to determine the effect of anti-O1 antigen antibodies on serum cytokines after LPS challenge, C57BL/6 mice were challenged with 0.3 mg/kg LPS intraperitoneally 24 hours after anti-O1 administration. 3 hours later, animals were sacrificed, and serum cytokines were measured using a Meso Scale Discovery (MSD) proinflammatory cytokine kit based on manufacturer's instruction. Polymyxin B (PMB) was used as a positive control. Serum IL-6, TNF-alpha, and CXCL1 concentration were plotted in Prism.

purified O1 LPS = experiment: Fortebio Octet competitive binding on O1 LPS; design: species or system Klebsiella pneumoniae; details: 10 μg/mL, probe pre-bound with KPE33
Description: Briefly, after initial binding with 10 μg/mL KPE33, the probe was incubated with antibody mixtures containing 10 μg/mL KPE33 with equal concentrations of 54H7, KPE33, or the control antibody R347.

Kp8561 Klebsiella = experiment: bacteremia model, KPE33 synergy with meropenem; type: in vivo, Klebsiella pneumoniae; details: antibody 2.5 mpk, meropenem 5 mpk, post challenge
Description: (§1) The synergy of anti-O1 antigen antibodies and antibiotic was also assessed in the pneumonia and bacteremia mouse models.
(§2) In the pneumonia experiments, C57BL/6 mice were inoculated intranasally with 1e4 to 1e8 CFU of the Kp8045 Klebsiella. (See FIG. 4A.) In the bacteremia experiments, mice were inoculated with Kp8561 Klebsiella. (See FIG. 4B.) Both sub-therapeutic dosage of antibodies (1 mpk for Kp8045 and 2.5 mpk for Kp8561) and meropenem antibiotic (2.5 mpk for Kp8045 and 5 mpk for Kp8561) were administered post bacterial challenge. Mouse survival was monitored daily until up to day 8.

[2] = system: clinical Klebsiella strains; experiment: western blot binding to clinical isolates
Description: In order to determine if anti-O1 antigen antibodies bind to clinically relevant Klebsiella strains, the binding of KPE33 to clinical isolates was determined by western blot assay. The ability of KPE33 to bind to all of these strains as well as its ability to protect against four different strains in vivo indicate that KPE33 can kill many clinically relevant Klebsiella strains.

Kp8045 Klebsiella = experiment: pneumonia model, KPE33 synergy with meropenem; type: in vivo, Klebsiella pneumoniae; details: antibody 1 mpk, meropenem 2.5 mpk, post challenge
Description: as §1, §2

[3] = system: K. pneumoniae strain Kp8045 (O1:K1); experiment: intranasal lung infection model, lung bacterial burden; type: in vivo, Klebsiella pneumoniae; details: C57BL/6 mice, 15 mg/kg, CFU 48 hours post infection
Description: The ability of anti-O1 antigen antibodies to reduce organ burden was tested in bacterial infection models. In these experiments, C57BL/6 mice were received from Jackson laboratories and maintained in a special pathogen free facility. All animal experiments were conducted in accordance with IACUC protocol and guidance. K. pneumoniae strains were grown on agar plates overnight and diluted in saline at proper concentration. The inoculum titer was determined by plating a serial dilution of bacteria onto agar plates prior to and post challenge.
Antibodies and controls at 15 mg/kg were administered 24 hours prior to bacterial infection. C57BL/6 mice were inoculated with 1e4 CFU Kp8045 (O1:K1) bacteria in 40 μl saline intranasally to induce pneumonia. The lung bacterial burden was measured by plating lung homogenates onto agar plates to determine CFU 48 hours post infection.

ESBL strain Kp8561 (O1) = experiment: lethal bacteremia model, survival; type: in vivo, Klebsiella pneumoniae; details: C57BL/6 mice, 1.5, 5, 15 mg/kg one hour post challenge
Description: In a bacteremia model, C57BL/6 mice were inoculated intraperitoneally with 1e8 CFU extended spectrum beta lactamase (ESBL) clinical isolate strain Kp8561 (O1). Anti-K. pneumoniae monoclonal antibody KPE33 at 1.5, 5, and 15 mg/kg and human IgG1 control antibody at 45 mg/kg were given one hour post bacterial challenge (therapeutic dosing). Mouse survival was monitored daily until up to day 8.

B1: 54H7: mouse hybridoma anti-O1 antigen antibody (Ms IgG3), VH SEQ ID NO:47, VL SEQ ID NO:48 (antibody, V domains shown)
VH: QVHLQQPGSELVRPGASVTLSCKASGYTFTNYWMQWVKQRPGQGLEWIGNIYPGSGNTNYDEKFRSKATLTVDTSSSTAYMHLTSLTSEDSAVYYCTRNWNFDYWGQGTTLTVSS
VL: DIQMTQSPSSLSASLGERVSLTCRASQDIGSSLNWLQQEPDGTIKRLIYATSSLDSGVPKRFSGSRSGSEYSLTISSLEAEDFVDYYCLQHTDSPYTFGGGTKLELK
modifications: 54H7 VH; 54H7 VL Amino Acid Sequence
serum IL-6 [1]: reduces
serum KC (CXCL1) [1]: reduces
serum TNF-alpha [1]: reduces
additional binding after initial binding of KPE33 (purified O1 LPS): able to show additional binding

B2: KPE33: human anti-K. pneumoniae O1 antigen antibody, VH SEQ ID NO:8, VL SEQ ID NO:9, isolated as IgG2 from donor #262 (antibody, V domains shown)
VH: EVQLVESGGALVQPGGSLRLSCAVSGFIFDDYAIHWVRRAPGKGLEWVSGIAWKSGATNYADSVKGRFAISRDNSKKSMYLQMNSLGTEDTALYYCTRRRASGDDTFYYFDYWGQGTLVTVSS
VL: EIVLTQSPATLSLSPGERATLSCRASQNVNTNLAWYQQRPGQSPRLLIYDASTRAAGLPARFSGSGSGTDFTLTISSLEPEDFAVYYCQQCTNWRYTFGQGTKLEIK
modifications: KPE33 VH Amino Acid Sequence; KPE33 VL Amino Acid Sequence
survival, combination with meropenem, bacteremia Kp8561 (Kp8561 Klebsiella): significant synergy and better protection than monotherapy
binding to clinical isolates ([2]; Table 8): binds not only to a large and diverse group of clinical strains, but also to antibiotic resistant clinically relevant strains
binding of KPE33 to clinical Klebsiella strains ([2]; clinical isolates listed in Table 8 (rows 1-36 CRE, rows 37-134 ESBL, rows 135-184 antibiotic-susceptible)): Summary of clinical Klebsiella strains which KPE33 binds.
survival, combination with meropenem, pneumonia Kp8045 (Kp8045 Klebsiella): significant synergy and better protection than monotherapy
lung bacterial burden [3]: significantly reduced organ burden
survival, lethal bacteremia Kp8561 (ESBL strain Kp8561 (O1)): protect mice from extended spectrum beta-lactamase (ESBL) strain Kp8561

Reference: patent US12018068B2, “Anti-O1 antibodies and uses thereof” (priority 2016, dated 2024)
